According to patent US20060172958:

Target: recombinant His-tagged PLS3 protein (pQE vector) (UniProt Q9NRY6)
Sequence (Q9NRY6 whole entry): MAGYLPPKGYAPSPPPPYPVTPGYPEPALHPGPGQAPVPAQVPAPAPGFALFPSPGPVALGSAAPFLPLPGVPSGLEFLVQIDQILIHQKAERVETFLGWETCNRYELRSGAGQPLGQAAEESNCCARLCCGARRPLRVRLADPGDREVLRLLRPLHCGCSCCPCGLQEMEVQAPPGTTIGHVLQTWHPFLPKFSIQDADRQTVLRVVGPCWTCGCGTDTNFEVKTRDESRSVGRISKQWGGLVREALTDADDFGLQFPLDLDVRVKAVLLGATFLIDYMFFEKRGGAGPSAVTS

Substance: recombinant PKC-δ enzyme (Calbiochem)
- in vitro phosphorylation: The PLS3 protein was a high-affinity substrate for PKC-δ and the phosphorylation steadily increased over the first 25 minutes
- km: it was determined that the km is 10.5 nM
